In patent CN109678958A (CHONGQING BIOMEAN TECH CO LTD, dated 2019):

Molecular target: T1, 重组人NT-proBNP (recombinant human N-terminal pro-brain natriuretic peptide, bought from 重庆探生科技有限公司) (human, UniProt P16860 27-102)
T1 construct: also called NT-proBNP校准品; 人脑钠肽原N端肽
T1 sequence (looked up): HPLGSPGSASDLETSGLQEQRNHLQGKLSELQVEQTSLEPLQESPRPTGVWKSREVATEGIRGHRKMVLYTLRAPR
Assay: phage ELISA, NT-proBNP coated, HRP anti-phage antibody, A450

B1: 人NT-proBNP特异性羊单链抗体scFv, displayed on phage (clone of the third round of panning) (scFv)
scFv: MALSQVRLQESGPSLVKPSQTLSLTCTVSGPSLTDYDVDWVRQAPGKALEWLGFINQGAPTGYDPALKSRLSITRDTSKSQVSLSLSSMTAEDTAVYYCARGAILGWGRGLLVTVSSQGSTSGSGKPGSGEGSTKGGQAVLTQPASVSGSPGQTVTISCTGTSGDIAGYNLVGWYQQLPNSAPKTLIYDVSTRRSGIPARFSGSKSGNTATLTISGLQAEDEADYYCSTSISANSVGFGSGTRLTVLGQPKSAPS
notes: The phage coat fusion partner is not described; also called 单克隆噬菌体
  binding result: binds
